Results from paper PMC3894748 (2013).

Target: actin (Homo sapiens, UniProt P60709)
Experiment: Ca2+-ATPase activity inhibition

- Kd: 680 nM
B1: plasma membrane calcium pump (PMCA) (protein)
chain: MTNPSDRVLPANSMAESREGDFGCTVMELRKLMELRSRDALTQINVHYGGVQNLCSRLKTSPVEGLSGNPADLEKRRQVFGHNVIPPKKPKTFLELVWEALQDVTLIILEIAAIISLVLSFYRPAGEENELCGQVATTPEDENEAQAGWIEGAAILFSVIIVVLVTAFNDWSKEKQFRGLQCRIEQEQKFSIIRNGQLIQLPVAEIVVGDIAQVKYGDLLPADGILIQGNDLKIDESSLTGESDHVKKSLDKDPMLLSGTHVMEGSGRMVVTAVGVNSQTGIILTLLGVNEDDEGEKKKKGKKQGVPENRNKAKTQDGVALEIQPLNSQEGIDNEEKDKKAVKVPKKEKSVLQGKLTRLAVQIGKAGLLMSALTVFILILYFVIDNFVINRRPWLPECTPIYIQYFVKFFIIGITVLVVAVPEGLPLAVTISLAYSVKKMMKDNNLVRHLDACETMGNATAICSDKTGTLTMNRMTVVQAYIGGIHYRQIPSPDVFLPKVLDLIVNGISINSAYTSKILPPEKEGGLPRQVGNKTECALLGFVTDLKQDYQAVRNEVPEEKLYKVYTFNSVRKSMSTVIRNPNGGFRMYSKGASEIILRKCNRILDRKGEAVPFKNKDRDDMVRTVIEPMACDGLRTICIAYRDFDDTEPSWDNENEILTELTCIAVVGIEDPVRPEVPDAIAKCKQAGITVRMVTGDNINTARAIATKCGILTPGDDFLCLEGKEFNRLIRNEKGEVEQEKLDKIWPKLRVLARSSPTDKHTLVKGIIDSTVGEHRQVVAVTGDGTNDGPALKKADVGFAMGIAGTDVAKEASDIILTDDNFTSIVKAVMWGRNVYDSISKFLQFQLTVNVVAVIVAFTGACITQDSPLKAVQMLWVNLIMDTFASLALATEPPTESLLKRRPYGRNKPLISRTMMKNILGHAFYQLIVIFILVFAGEKFFDIDSGRKAPLHSPPSQHYTIVFNTFVLMQLFNEINSRKIHGEKNVFSGIYRNIIFCSVVLGTFICQIFIVEFGGKPFSCTSLSLSQWLWCLFIGIGELLWGQFISAIPTRSLKFLKEAGHGTTKEEITKDAEGLDEIDHAEMELRRGQILWFRGLNRIQTQIDVINTFQTGASFKGVLRRQNMGQHLDVKLVPSSSYIKVVKAFHSSLHESIQKPYNQKSIHSFMTHPEFAIEEELPRTPLLDEEEEENPDKASKFGTRVLLLDGEVTPYANTNNNAVDCNQVQLPQSDSSLQSLETSV
